Series [1] relates to myofibers. The series is described as follows: Annexin repair cap formation after laser injury at multiple Ca2+ concentrations. The format is cell-based, mouse. As to conditions: for Km1/2 (repair cap area as a function of Ca2+ concentration): Ca2+ 0-2 mM, modified Hill equation; for wildtype annexin A6 cap size with co-expressed mutant annexin A1 or A2: heterotypic co-expression; for repair cap diameter (DMAX) / cap size of the co-expressed wildtype annexin of the same type: wildtype+mutant vs wildtype+wildtype co-electroporation (homotypic). On the procedure:
(§1) Electroporation, myofiber isolation, laser injury, cap and vesicle measurement. Flexor digitorum brevis (FDB) fibers were transfected with endo-free plasmid DNA by in vivo electroporation. Methods were described previously in (Demonbreun and McNally, 2015; Demonbreun et al., 2016b; DiFranco et al., 2009). Z-stack projections were acquired from consecutive acquisitions after the final time-lapse frame, approximately 4 minutes post damage, with a […] step size between slices. Z-stack renderings were constructed in FIJI. Measurement of the cap area and feret diameter were conducted from a single slice near the middle of the z-stack using FIJI imaging tools. Fibers expressing similar levels of tagged or GCaMP5G protein were compared. GCaMP5G Ca^2+ fluorescence was measured from the acquired timelapse images, using a standard rectangular ROI, placed inside the myofiber below the site of damage using FIJI. Fluorescence was expressed as F/F0. External vesicle number and GCaMP5G area were measured from endpoint z-stacks and max projection images using FIJI. Vesicles were considered external if they were found outside the sarcolemma assessed in brightfield and fluorescent channels. All measurements were acquired from myofibers isolated from at least n≥3 mice, n≥3 myofibers per mouse.
Calcium kinetics. FDB muscle was electroporated and isolated as described above. Myofibers were damaged in Ringers solution with Ca^2+ concentrations of 2 mM, 1 mM, 0.5 mM, 0.25 mM, 0.175 mM, 0.1 mM, 0.050 mM, and 0 mM. EDTA was added as a Ca^2+ chelating agent in only in the 0 mM Ca^2+ Ringers. Myofibers were isolated directly into 2 mM, 1 mM and 0.5 mM Ringers for those experiments respectively. For experiments using less than 0.5 mM Ca^2+ myofibers were isolated in 0.5 mM Ca^2+ Ringers and then diluted with 0 mM EDTA-free Ca^2+ Ringers. For 0 mM experiments, myofibers were isolated in 0.5 mM Ca^2+ Ringers and then replaced with 0 mM Ca^2++EDTA Ringers just prior to imaging. Co-electroporation of wildtype annexin+wildtype annexin constructs was performed in one mouse foot, while the contralateral foot was co-electroporated with wildtype annexin+mutant annexin. All measurements were acquired from myofibers isolated from at least n≥2 mice, n≥3 myofibers per mouse at each Ca^2+ concentration. Area-Ca^2+ curves were fitted with a Hill Curve at Ca^2+ concentrations ranging from 0-2 mM. Kinetic parameters were calculated using Prism Graphpad.
as §1, with “(Demonbreun A R, Quattrocelli M, Barefield D Y, Allen M V, Swanson K E,” for “(Demonbreun”, “McNally E M. An actin-dependent annexin complex mediates plasma membrane repair in muscle. The Journal of cell biology. 2016; 213(6):705-18; Demonbreun A R, and McNally E M. DNA Electroporation, Isolation and Imaging of Myofibers. Journal of visualized experiments: JoVE.” for “McNally,”, “106(106):e53551;” for “Demonbreun et al., 2016b;”, “M, Quinonez M, Capote J, and Vergara J. DNA transfection of mammalian skeletal muscles using in vivo electroporation. Journal of visualized experiments: JoVE. 2009; 32(32)).” for “et al., 2009).”, “Vesicles were considered external if they were found outside the sarcolemma assessed in brightfield and fluorescent channels. All measurements were acquired from myofibers isolated from at least n≥3 mice, n≥3 myofibers per mouse.” left out

Series [2] has as its system myofibers. In words: Bleb formation and intracellular Ca2+ fluorescence (GCaMP5G, Fluo-4) after laser injury with annexin overexpression. The series is classed as cell-based, mouse. The note with it: for internal GCaMP5G Ca2+ fluorescence at the site of injury: vs GCaMP5G alone. On the procedure:
as §1
as §1, with “(Demonbreun A R, Quattrocelli M, Barefield D Y, Allen M V, Swanson K E,” for “(Demonbreun”, “McNally E M. An actin-dependent annexin complex mediates plasma membrane repair in muscle. The Journal of cell biology. 2016; 213(6):705-18; Demonbreun A R, and McNally E M. DNA Electroporation, Isolation and Imaging of Myofibers. Journal of visualized experiments: JoVE.” for “McNally,”, “106(106):e53551;” for “Demonbreun et al., 2016b;”, “M, Quinonez M, Capote J, and Vergara J. DNA transfection of mammalian skeletal muscles using in vivo electroporation. Journal of visualized experiments: JoVE. 2009; 32(32)).” for “et al., 2009).”
Calcium and pH indicator dye measurements. Wildtype FDBs were isolated and plated in Ringers on Matek glass-bottom dishes as described above. Twenty minutes prior to imaging, myofibers were loaded with Fluo-4 AM at 37° C. (F10489, ThermoFisher Scientific, Waltham, Mass.) or pHrodo AM (P35373, ThermoFisher Scientific, Waltham, Mass.) as described in the instruction manual. Fibers were rinsed once with Ringers then subsequently damaged and imaged on the Nikon A1R GaSP, as described above. Fluorescence intensity was measured using FIJI (NIH). phRodo change in fluorescence intensity was calculated as F/F0. Data was acquired from n=3 mice per experiment from multiple myofibers per mouse. […]

Where [3] appears, read: fluorescently tagged annexin expressed in myofibers.

B1: annexin A1: annexin A1 with carboxyl-terminal turboGFP or tdTomato tag, expressed from plasmid in myofibers (protein, UniProt P10107 2-346, looked up)
Annexin A1: AMVSEFLKQARFLENQEQEYVQAVKSYKGGPGSAVSPYPSFNVSSDVAALHKAIMVKGVDEATIIDILTKRTNAQRQQIKAAYLQENGKPLDEVLRKALTGHLEEVVLAMLKTPAQFDADELRGAMKGLGTDEDTLIEILTTRSNEQIREINRVYREELKRDLAKDITSDTSGDFRKALLALAKGDRCQDLSVNQDLADTDARALYEAGERRKGTDVNVFTTILTSRSFPHLRRVFQNYGKYSQHDMNKALDLELKGDIEKCLTTIVKCATSTPAFFAEKLYEAMKGAGTRHKALIRIMVSRSEIDMNEIKVFYQKKYGISLCQAILDETKGDYEKILVALCGGN
modifications: C-terminal turboGFP or tdTomato tag
notes: annexin A1 with carboxyl-terminal turboGFP or tdTomato tag, expressed from plasmid in myofibers
As to B1, in the series on myofibers [1] (setting [3]), the “Km1/2 (repair cap area as a function of Ca2+ concentration)” value is on record as 0.17 mM. Moreover, the “internal GCaMP5G Ca2+ fluorescence at the site of injury” value in the series with myofibers [2] (over 240 seconds of imaging) is “significant reduction”.

B2: annexin A1 D171A: Ca2+-binding mutant of annexin A1 (D171A), plasmid expressed (protein, UniProt P10107 2-346, looked up, variant D171A)
Annexin A1: AMVSEFLKQARFLENQEQEYVQAVKSYKGGPGSAVSPYPSFNVSSDVAALHKAIMVKGVDEATIIDILTKRTNAQRQQIKAAYLQENGKPLDEVLRKALTGHLEEVVLAMLKTPAQFDADELRGAMKGLGTDEDTLIEILTTRSNEQIREINRVYREELKRDLAKDITSATSGDFRKALLALAKGDRCQDLSVNQDLADTDARALYEAGERRKGTDVNVFTTILTSRSFPHLRRVFQNYGKYSQHDMNKALDLELKGDIEKCLTTIVKCATSTPAFFAEKLYEAMKGAGTRHKALIRIMVSRSEIDMNEIKVFYQKKYGISLCQAILDETKGDYEKILVALCGGN
modifications: GFP tag
With B2, in the series on myofibers [1], the “wildtype annexin A6 cap size with co-expressed mutant annexin A1 or A2” value is on record as “minimal effect” and the “repair cap diameter (DMAX) / cap size of the co-expressed wildtype annexin of the same type” value (from here on “repair cap diameter (DMAX) / cap size”) is on record as “significantly reduced”.

B3: annexin A2: annexin A2 with carboxyl-terminal turboGFP or tdTomato tag, expressed from plasmid in myofibers (protein, UniProt P07356 2-339, looked up)
Annexin A2: STVHEILCKLSLEGDHSTPPSAYGSVKPYTNFDAERDALNIETAVKTKGVDEVTIVNILTNRSNVQRQDIAFAYQRRTKKELPSALKSALSGHLETVILGLLKTPAQYDASELKASMKGLGTDEDSLIEIICSRTNQELQEINRVYKEMYKTDLEKDIISDTSGDFRKLMVALAKGRRAEDGSVIDYELIDQDARELYDAGVKRKGTDVPKWISIMTERSVCHLQKVFERYKSYSPYDMLESIKKEVKGDLENAFLNLVQCIQNKPLYFADRLYDSMKGKGTRDKVLIRIMVSRSEVDMLKIRSEFKRKYGKSLYYYIQQDTKGDYQKALLYLCGGDD
modifications: C-terminal turboGFP or tdTomato tag
notes: annexin A2 with carboxyl-terminal turboGFP or tdTomato tag, expressed from plasmid in myofibers
Take B3: the “lowest Ca2+ concentration at which a discernable repair cap formed” value with myofibers [1] (setting [3]) came out at 0.05 mM. In the series with myofibers [1] (setting [3]), the “Km1/2 (repair cap area as a function of Ca2+ concentration)” value was determined as 0.067 mM. In the series with myofibers [2] (annexin overexpression vs annexin A1 overexpression or GCaMP5G alone), the “number of extracellular (GCaMP5G-positive) blebs at the membrane lesion” value is listed as “significantly more blebs”. For the same molecule, the “internal GCaMP5G Ca2+ fluorescence at the site of injury” value with myofibers [2] (first 20 seconds post injury) and in the series on myofibers [2] (over 240 seconds of imaging) was “significant reduction” each time.

B4: A2D161A: Ca2+-binding mutant of annexin A2 (D161A), plasmid expressed (protein, UniProt P07356 2-339, looked up, variant D161A)
Annexin A2: STVHEILCKLSLEGDHSTPPSAYGSVKPYTNFDAERDALNIETAVKTKGVDEVTIVNILTNRSNVQRQDIAFAYQRRTKKELPSALKSALSGHLETVILGLLKTPAQYDASELKASMKGLGTDEDSLIEIICSRTNQELQEINRVYKEMYKTDLEKDIISATSGDFRKLMVALAKGRRAEDGSVIDYELIDQDARELYDAGVKRKGTDVPKWISIMTERSVCHLQKVFERYKSYSPYDMLESIKKEVKGDLENAFLNLVQCIQNKPLYFADRLYDSMKGKGTRDKVLIRIMVSRSEVDMLKIRSEFKRKYGKSLYYYIQQDTKGDYQKALLYLCGGDD
modifications: GFP tag
For the molecule B4, in the series with myofibers [1], the “wildtype annexin A6 cap size with co-expressed mutant annexin A1 or A2” value is “minimal effect” and the “repair cap diameter (DMAX) / cap size” value was “significantly reduced”.

B5: A6D149A: annexin A6 D149A mutant, plasmid expressed (protein, UniProt P14824 2-673, looked up, variant D149A)
Annexin A6: AKIAQGAMYRGSVHDFPEFDANQDAEALYTAMKGFGSDKESILELITSRSNKQRQEICQNYKSLYGKDLIEDLKYELTGKFERLIVNLMRPLAYCDAKEIKDAISGVGTDEKCLIEILASRTNEQMHQLVAAYKDAYERDLESDIIGATSGHFQKMLVVLLQGTRENDDVVSEDLVQQDVQDLYEAGELKWGTDEAQFIYILGNRSKQHLRLVFDEYLKTTGKPIEASIRGELSGDFEKLMLAVVKCIRSTPEYFAERLFKAMKGLGTRDNTLIRIMVSRSELDMLDIREIFRTKYEKSLYSMIKNDTSGEYKKALLKLCGGDDDAAGQFFPEAAQVAYQMWELSAVSRVELKGTVCAANDFNPDADAKALRKAMKGIGTDEATIIDIVTHRSNAQRQQIRQTFKSHFGRDLMADLKSEISGDLARLILGLMMPPAHYDAKQLKKAMEGAGTDEKTLIEILATRTNAEIRAINEAYKEDYHKSLEDALSSDTSGHFRRILISLATGNREEGGENRDQAQEDAQVAAEILEIADTPSGDKTSLETRFMTVLCTRSYPHLRRVFQEFIKKTNYDIEHVIKKEMSGDVKDAFVAIVQSVKNKPLFFADKLYKSMKGAGTDEKTLTRVMVSRSEIDLLNIRREFIEKYDKSLHQAIEGDTSGDFMKALLALCGGED
modifications: GFP tag
notes: annexin A6 D149A mutant, plasmid expressed
Take B5: the “repair cap diameter (DMAX) / cap size” value in the series with myofibers [1] was “little effect”.

Values taken from patent US20220143136A1, “USE OF ANNEXINS IN PREVENTING AND TREATING MUSCLE MEMBRANE INJURY” (NORTHWESTERN UNIVERSITY, priority 2018, published 2022).
